Data taken from PMC8792056 (2022).
One block for each molecule: values may come before it.

Experiments:
[1] = target: DNAJB14-ΔDUF, FLAG-tagged (human); assay: co-IP; HEK293T cells transfected with FLAG-tagged chaperone (DNAJB12 isoforms alone or with HTT-134Q-GFP or HTT-17Q-GFP; DNAJB14 forms also in cells expressing FUS-WT-YFP or FUS-R521H-YFP), lysed 48 h later in 50 mM HEPES pH 7.9, 0.5% Triton X-100, 5% glycerol, 150 mM NaCl, 2 mM EDTA; anti-FLAG M2 beads 3 h at 4 °C, 7 washes; blot with anti-HSC70/HSP70 for endogenous HSP70
[2] = target: DNAJB14-ΔDUF, FLAG-tagged (human); assay: co-IP; HEK293T cells co-transfected with FLAG-tagged DNAJB14 forms and DNAJB12-FL-mOrange; lysis in 50 mM HEPES pH 7.9, 0.5% Triton X-100, 5% glycerol, 150 mM NaCl, 2 mM EDTA; anti-FLAG M2 beads 3 h at 4 °C, 7 washes; blot with anti-RFP for mOrange, normalised to the FLAG band

interaction as percent of that of DNAJB14-FL [1]: 50%
Molecule: HSP70 (from UniProt P0DMV8 1-641) (natural protein)

fold lower interaction than with DNAJB14-FL [2]: 3 fold
B1: DNAJB12-FL-mOrange (natural protein)
chain: MESNKDEAERCISIALKAIQSNQPDRALRFLEKAQRLYPTPRVRALIESLNQKPQTAGDQPPPTDTTHATHRKAGGTDAPSANGEAGGESTKGYTAEQVAAVKRVKQCKDYYEILGVSRGASDEDLKKAYRRLALKFHPDKNHAPGATEAFKAIGTAYAVLSNPEKRKQYDQFGDDKSQAARHGHGHGDFHRGFEADISPEDLFNMFFGGGFPSSNVHVYSNGRMRYTYQQRQDRRDNQGDGGLGVFVQLMPILILILVSALSQLMVSSPPYSLSPRPSVGHIHRRVTDHLGVVYYVGDTFSEEYTGSSLKTVERNVEDDYIANLRNNCWKEKQQKEGLLYRARYFGDTDMYHRAQKMGTPSCSRLSEVQASLHG
